Measurements as given in patent US20110053865A1 (Ablynx, published 2011).
Like-named read-outs stand apart in the source and are kept apart here.

B1: 23IL0038 (PEG40 form not stated) (bispecific antibody)
chain: EVQLVESGGGLVQAGGSLRLSCAASGRIFSLPASGNIFNLLTIAWHRQAPGMQRELVATINSGSRTNYADSVKGRFTISRDNAQKTVYLQMNNLKPEDTAVYYCQTSGSGSPNFWGQGTQVTVSSGGGGSGGGGSGGGGSGGGGSGGGGSGGGGSGGGGSEVQLVESGGGLVQPGGSLRLSCIASGLPFSTKSMGWFRQAPGKEREFVARISPGGTSRYYGDFVKGRFAISRDNAKNTTWLQMNSLKAEDTAVYYCASGERSTYIGSNYYRTNEYDYWGTGTQVTVSSGGGC
modifications: PEG40 on the C-terminal Cys of GGGC; branched or linear not stated for this assay
notes: also called P23IL0038; 119A3-81G2-PEG40
B2: P23IL36A4 (VHH)
VHH: EVQLVESGGGLVQAGGSLRLSCVASERTFSSSAMGWFRQAPGKEREFVAAIGWSGGGFIHYGDSVKGRFTISADNGKNTVYLQMNSLKPEDTAVYYCAADSRLRGIALLKGSYDYRGQGTQVTVSS
notes: p19+ Nanobody; c-myc, His6-tagged; also called P23IL 36A4 (=36G2); 36G2
B3: P23IL119A3V16-35GS-81G2V11-HSA (bispecific antibody)
chain: EVQLLESGGGLVQPGGSLRLSCAASGRIFSLPASGNIFNLLTIAWYRQAPGKGRELVATINSGSRTYYADSVKGRFTISRDNSKKTLYLQMNSLRPEDTAVYYCQTSGSGSPNFWGQGTLVTVSSGGGGSGGGGSGGGGSGGGGSGGGGSGGGGSGGGGSEVQLLESGGGLVQPGGSLRLSCAASGLPFSTKSMGWFRQAPGKGREFVSRISPGGTSRYYGDFVKGRFTISRDNSKNTLYLQMNSLRAEDTAVYYCASGERSTYIGSNYYRTNEYDYWGQGTLVTVSS
notes: also called P23IL0065; 23IL0065; not shown: full length human serum albumin fused directly to the C-terminus
B4: P23IL37D5 (VHH)
VHH: EVQLVESGGGLVQPGGSLRLSCAASGFTLDYLAIGWFRQAPGKEREGVSCVSSSGQYTYYADSVKGRFTISRDNAESTVYLQMNSLKPEDTAVYYCATDPECYRVRGYYNGEYDYWGQGTQVTVSS
notes: p19+ Nanobody; c-myc, His6-tagged; also called PIL2337D5
B5: P23IL119A3V16-35GS-81G2V11-GGGC-PEG40 linear (bispecific antibody)
chain: EVQLLESGGGLVQPGGSLRLSCAASGRIFSLPASGNIFNLLTIAWYRQAPGKGRELVATINSGSRTYYADSVKGRFTISRDNSKKTLYLQMNSLRPEDTAVYYCQTSGSGSPNFWGQGTLVTVSSGGGGSGGGGSGGGGSGGGGSGGGGSGGGGSGGGGSEVQLLESGGGLVQPGGSLRLSCAASGLPFSTKSMGWFRQAPGKGREFVSRISPGGTSRYYGDFVKGRFTISRDNSKNTLYLQMNSLRAEDTAVYYCASGERSTYIGSNYYRTNEYDYWGQGTLVTVSSGGGC
modifications: linear mPEG40 (maleimide) on the C-terminal Cys of GGGC
notes: also called P23IL0063; 23IL0063

Key:
[1] = target: T1, recombinant human IL-23 (p19/p40) (human, UniProt Q9NPF7 20-189; P29460 23-328); assay: inhibition ELISA, hIL-23/hIL-23R-Fc
T1 construct: Bought heterodimer (R&D Systems or eBioscience); biotinylated in the alpha-screens; also called hIL-23
T1 sequence (looked up) 1: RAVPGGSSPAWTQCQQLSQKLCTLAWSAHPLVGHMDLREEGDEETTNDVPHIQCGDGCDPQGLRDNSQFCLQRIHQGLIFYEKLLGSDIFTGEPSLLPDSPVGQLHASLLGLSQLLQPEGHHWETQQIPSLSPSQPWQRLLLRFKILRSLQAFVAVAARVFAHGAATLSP
T1 sequence (looked up) 2: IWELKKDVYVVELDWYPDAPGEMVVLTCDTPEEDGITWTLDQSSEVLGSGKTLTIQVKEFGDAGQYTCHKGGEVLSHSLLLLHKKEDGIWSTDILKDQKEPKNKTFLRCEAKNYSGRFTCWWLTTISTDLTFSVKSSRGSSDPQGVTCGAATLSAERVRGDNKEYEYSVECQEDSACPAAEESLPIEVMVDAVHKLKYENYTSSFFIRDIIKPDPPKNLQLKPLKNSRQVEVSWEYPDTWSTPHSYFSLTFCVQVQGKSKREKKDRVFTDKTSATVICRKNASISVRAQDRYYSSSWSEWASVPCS
Experimental: (§1) Visualisation was performed with enhanced soluble 3,3′,5,5′-tetramethylbenzidine (esTMB) colouring reagent, after which the coloring reaction was stopped with 1N HCl. The absorbance was measured at 450 nm.

[2] = target: T2, cynomolgus IL-23 (cynomolgus); assay: alpha-screen, cyno IL-23/IL-23R-Fc
T2 construct: also called cyno IL-23; cIL-23
Experimental: (§2) Human IL-23R-Fc chimera and hIL12Rbeta1-Fc chimera (R&D Systems, Minneapolis, Minn., US) were coupled to acceptor beads according to manufacturer instructions (Perkin Elmer, Waltham, Mass., US).
(§3) To this mixture, the IL-23R acceptor beads and the streptavidin donor beads were added and further incubated for 1 hour at RT.

[3] = target: T1, recombinant human IL-23 (p19/p40); assay: SPR Biacore, hIL-23 on chip
Experimental: Nanobody binding was assessed at one concentration (100 nM). Each Nanobody was injected for 4 minutes at a flow rate of 45 μl/min to allow binding to chip-bound antigen. Next, binding buffer without Nanobody was sent over the chip at the same flow rate to allow spontaneous dissociation of bound Nanobody.

[4] = target: T2, cynomolgus IL-23; assay: SPR Biacore, cyno IL-23 on chip
[5] = target: T1, recombinant human IL-23 (p19/p40); assay: alpha-screen, hIL-23/IL-23R-Fc
Experimental: as §2, §3

[6] = target: T2, cynomolgus IL-23; assay: cell-based or functional assay
[7] = target: T1, recombinant human IL-23 (p19/p40); assay: cell-based or functional assay
[8] = target: T1, recombinant human IL-23 (p19/p40); assay: inhibition ELISA, hIL-23/hIL-23R-Fc; remark: listed apart in the source
Experimental: as §1

[9] = target: T2, cynomolgus IL-23; assay: cell-based or functional assay; remark: listed apart in the source
[10] = target: T1, recombinant human IL-23 (p19/p40); assay: cell-based or functional assay; remark: listed apart in the source
[11] = target: T1, recombinant human IL-23 (p19/p40); assay: cell-based or functional assay; remark: listed apart in the source
[12] = target: T1, recombinant human IL-23 (p19/p40); assay: comp alpha-screen hIL-23
[13] = target: T1, recombinant human IL-23 (p19/p40); assay: 'potency assay', not specified (probably the inhibition ELISA of Example 34)
[14] = target: T2, cynomolgus IL-23; assay: cell-based or functional assay; remark: listed apart in the source
[15] = target: T1, recombinant human IL-23 (p19/p40); assay: cell-based or functional assay; remark: listed apart in the source
[16] = target: T1, recombinant human IL-23 (p19/p40); assay: SPR Biacore, hIL-23 on chip, several concentrations
[17] = target: T1, recombinant human IL-23 (p19/p40); assay: cell-based or functional assay; remark: listed apart in the source

| Binder | IC50 [2] [nM] | koff [3] [s⁻¹] | koff [4] [s⁻¹] | IC50 [5] [nM] | IC50, mouse splenocyte assay (mIL-22) [6] [nM] | IC50, mouse splenocyte assay (mIL-22) [7] [pM] | IC50 [8] [nM] | IC50, splenocyte assay, 3.8 pM cIL-23 [9] [pM] | IC50, splenocyte assay, 19 pM hIL-23 [10] [pM] | IC50, BA/F3 proliferation assay, 76 pM hIL-23 [11] [pM] | further results |
| --- | --- | --- | --- | --- | --- | --- | --- | --- | --- | --- | --- |
| B1 |  |  |  |  |  |  |  |  |  |  | IC50 [1]: 0.032 nM |
| B2 | 0.47 | 0.0009 | 0.0012 | 1 | 11 | 3120 |  |  |  |  |  |
| B3 |  |  |  |  |  |  | 0.038 | 6.7 | 4.6 | 125 |  |
| B4 | 0.32 | 0.00019 | 0.00051 | 0.11 | 0.288 | 17 |  |  |  |  | IC50 [12]: 0.176 nM; IC50 [13]: 0.0384 nM; IC50, splenocyte assay, 3.8 pM cIL-23 [14]: 212 pM; IC50, splenocyte assay, 19 pM hIL-23 [15]: 24 pM; Kd [16]: 0.57 nM; koff [16]: 0.00018 s⁻¹; IC50, BAF3 proliferation assay, 76 pM hIL-23 [17]: 13 pM |
| B5 |  |  |  |  |  |  | 0.025 | 13.1 | 2.7 | 71 |  |
